According to paper PMC10013841:

How the values were obtained:
[1] = molecular target: SARS-CoV-2 Spike glycoprotein (WH-1), trimeric, HEK293-produced (S1+S2) (SARS-CoV-2) (UniProt P0DTC2); assay: ELISA
[2] = molecular target: SARS-CoV-2 Spike glycoprotein (Omicron), trimeric, HEK293-produced (SARS-CoV-2) (UniProt P0DTC2); assay: ITC
[3] = molecular target: baculovirus-produced trimeric Spike (SARS-CoV-2) (UniProt P0DTC2); assay: ITC
[4] = molecular target: SARS-CoV-2 Spike glycoprotein (WH-1), trimeric, HEK293-produced (S1+S2) (SARS-CoV-2) (UniProt P0DTC2); assay: ITC

cyanovirin-N, sequence (P81180 whole entry): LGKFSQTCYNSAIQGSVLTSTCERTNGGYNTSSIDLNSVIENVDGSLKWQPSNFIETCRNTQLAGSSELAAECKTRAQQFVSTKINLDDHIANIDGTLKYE

cyanovirin-N (from UniProt P81180 1-101) (natural protein)
EC50 [1]: 2.9 nM | Kd [2]: 15.4 nM | stoichiometry N (CV-N per Spike monomer) [2]: 2 | Kd [3]: 13.4 nM | stoichiometry N (CV-N per Spike monomer) [3]: 2.4 | Kd [4]: 28.1 nM | stoichiometry N (CV-N per Spike monomer) [4]: 2
